Measured values from the nanobody polyreactivity screen of Harvey et al. (2022).

Assay: yeast display, Sf9 membrane polyspecificity reagent, FACS + sequencing; frameworks hold sequencing errors
How it was run: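 In a synthetic yeast display library (Saccharomyces cerevisiae BJ5465), nanobody expression was induced with galactose for 36–48 hours. FACS gates were set low and high (top ~1%) using anti-HA fluorescence for expression and streptavidin fluorescence for binding of the Sf9 membrane reagent. Each polyreactivity label is drawn from the gate of origin.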

Sequence | polyreactivity (PSR sort gate)
QVQLVESGGGLVQAGGSLRLSCAASGRIFNQYGMGWYRQAPGKERELVAAIRSGDSTNYADSVKGRFTISRDNAKNTVYLQMNSLKPEDTAVYYCKAVPSQHDEFDYWGQGTQVTVSS | low polyreactivity
QVQLVESGGGLVQAGGSLRLSCAASGRIFNRYAMGWYRQAPGKERELVASISLSGDSTYYADSVKGRFTISRDNAKNTVYLQMNSLKPEDTAVYYCAVEGLGAAVYAGDRYDYWGQGTQVTVSS | low polyreactivity
QVQLVESGGGLVQAGGSLRLSCAASGRIFNSYGMGWYRHAPGKEREFVAAISRSGGITYYADSVKGRFTISRDNAKNTVYLQMNSLKPEDSAVYYCAADYYWRRQRQVGYWGQGTQVTVSS | high polyreactivity
QVQLVESGGGLVQAGGSLRLSCAASGRIFNVYAMGWYRQAPGKERELVASITSAGSTYYADSVKGRFTISRDNAKNTVYLQMNSLKPEDTAVYYCAADSYSVYYYTYDSWGQGTQVTVSS | low polyreactivity
QVQLVESGGGLVQAGGSLRLSCAASGRIFNWYAMGWYRKAPGKERELVAAISTDGSTYYADSVKGRFTISRDNAKNTVFLQMNSLKPEDTAVYYCAAVPGYTHLWGGPFDYWGQGTQVTVSS | low polyreactivity
QVQLVESGGGLVQAGGSLRLSCAASGRIFNYYAMGWYRQAPGKERELVAAISARGGSTYYADSVKGRFTISRDNAKNTVYLQMNSLKPEDNAVYYCAKRLYYSYGKYLLGAYYYWGQGTQVTVSS | high polyreactivity
QVQLVESGGGLVQAGGSLRLSCAASGRIFNYYAMGWYRQAPGKERELVAAISARGGSTYYADSVKGRFTISRDNAKNTVYLQMNSLKPEDTAVYYCAVSSGSYGYGYWGQGTQVTVSS | high polyreactivity
QVQLVESGGGLVQAGGSLRLSCAASGRIFNYYAMGWYRQAPGKERELVATISRNGGRTYYADSVKGRFTISRDNAKNTVYLQMNSLKPEVTAVYYCATDGLYRYDYWGQGTQVTVSS | high polyreactivity
QVQLVESGGGLVQAGGSLRLSCAASGRIFNYYAMGWYRQAPGKVTEFVASITSRGGTTYYADSVKGRFTISRDNAKNTVYLQMNCLKTEDTAVYFCAAVTRQGSRRSRMNYWGQGTQVTVSS | high polyreactivity
QVQLVESGGGLVQAGGSLRLSCAASGRIFPANAMGWYRQAPGKERELVAAISSSGGSTYYADSVKGRFTISRDNAKNTVYLQMNSLKPEDTAVYYCAKVHYRWPRVTWPNVWWSFEYWGQGTQVTVSS | low polyreactivity
QVQLVESGGGLVQAGGSLRLSCAASGRIFPAYAMGWYRQAPGKERELVASIRRGGITYADSVKGRFTSSRDNAKNTVYLQMNSLKPEDTAVYYCNADKYGPSAYDYWGQGTQVTVSS | low polyreactivity
QVQLVESGGGLVQAGGSLRLSCAASGRIFPAYAMGWYRQPPGKERELVASIRRGGITYADSVKGRFTISRDNAKNTVYLQMNSLKPEDTAVYYCARPQWRDWYGYWGQGTQVTVSS | low polyreactivity
QVQLVESGGGLVQAGGSLRLSCAASGRIFPAYAMGWYRQSPGKERELVASIRRGGITYADSVKGRFTISRDNAKNTVSLQMTSLNPEDTAVYYCNAHYRGWGYHMDYWGQGTQVTGSS | low polyreactivity
QVQLVESGGGLVQAGGSLRLSCAASGRIFPAYVMGWYRQSPGKERELVATIDNGGGTYYADSVKGRFTISRDNAKNTVYLQMNSLKPEDTAVYYCARDRHVRWGLKMDYWGQGTQVTVSS | low polyreactivity
QVQLVESGGGLVQAGGSLRLSCAASGRIFPDNTMGWYRQAPGKERELVAVITYSGGSTYYADSVKGRFTISRDNAKNTVYLQMNSLKPEDTAVYYCARDDATAGDYWGQGTQVTVSS | low polyreactivity
QVQLVESGGGLVQAGGSLRLSCAASGRIFPEYAMGWYRQAPGKERELVAAISSGDNTTYADSVKGRFTISRDNAKNTVYLQMNSLIPEDTAVYYCNAGSCTTGQGGPIIEYGYWGQGTQVTVSS | low polyreactivity
QVQLVESGGGLVQAGGSLRLSCAASGRIFPFYAMGWYRQAPGKERELVAAITQSGGSTYYADSVKGRFTISRDNAKNTVYLQMNSLKPEDTAVYYCAADYGSFLYGYPTYDYWGQGTQVTVSS | low polyreactivity
